Reference: patent US12522842B2, “Glutamine synthetase mutant having glufosinate resistance and application thereof and cultivation method therefor” (GEVOTO LLC, priority 2019, dated 2026)

Key:
[1] = tested on: glutamine synthetase-deficient Escherichia coli; test: Growth of glutamine synthetase-deficient E. coli transformed with GS mutants in M9 medium containing glufosinate; format: cell-based; conditions: for growth of transformed GS-deficient E. coli (normal GS enzymatic activity): medium containing 0 mM glufosinate
From the text: According to the sequences of the nucleic acid molecules provided in Example 4, the nucleic acid sequences encoding rice GS mutants OsA, OsC, OsD, OsE, OsF, OsG, OsH, OsI, OsK, OsP, OST, OsV, and OsY were synthesized using chemical synthesis method. Restriction digestion sites (Pac1 and Sbf1) were introduced at both ends thereof, and after restriction digestion, they were linked under the action of ligase to an expression vector (such as pADV7 vector, whose structure is shown in FIG. 4) that was subjected to the same restriction digestion treatment. Then, glutamine synthetase-deficient Escherichia coli was transformed with the resultant. After verification, positive clones were picked up and inoculated in M9 medium containing different concentrations of glufosinate to grow, and the growth status of defective Escherichia coli was observed.
With wild-type rice GS (its amino acid sequence shown in SEQ ID NO. 1 and its encoding gene shown in SEQ ID NO. 4) as a negative control, the glufosinate resistance for the GS mutant OsA (S59A, wherein the amino acid S at site 59 of the rice GS is mutated into A), OsC (S59C), OsD (S59D), OsE (S59E), OsF (S59F), OsG (S59G), OsH (S59H), OsI (S591), OsK (S59K), OsP (S59P), OsT (S59T), OsV (S59V), OsY (S59Y) was detected.
With reference to the detection method of Experimental Example 1, glufosinate resistance of the rice GS mutant OsGR (S59G and H296R, the amino acid S at site 59 of rice GS is mutated into G and the amino acid H at site 296 is mutated into R), the wheat GS mutant TaGR (S59G and H296R, the amino acid S at site 59 of wheat GS is mutated into G and the amino acid H at site 296 is mutated into R), the soybean GS mutant GmGR (S59G and H296R, the amino acid S at site 59 of soybean GS is mutated into G and the amino acid H at site 296 is mutated into R) provided in Example 2 was verified.
With reference to Experimental example 1, the glufosinate resistance of rice GS mutants OA, OD, OE, OG, OI, OK, OM, OP, OQ, OR, OS, OT, and OV provided in Example 3 was detected according to the following method.
With wild-type rice GS as a negative control, the glufosinate resistance of GS mutants OA (H296A, amino acid H at site 296 of rice GS is mutated into A), OD (H296D), OE (H296E), OG (H296G), OI (H2961), OK (H296K), OM (H296M), OP (H296P), OQ (H296Q), OR (H296R), OS (H296S), OT (H296T), OV (H296V) was detected.

[2] = tested on: rice (Nipponbare); test: Glufosinate resistance of transgenic rice after spraying 1x field dose; format: in vivo; conditions: 1x glufosinate, 450 g/ha, day 7 after spraying
From the text: The glufosinate resistance resulting from the OR mutants provided in Example 3 in transgenic rice was detected according to the following method.
The nucleic acid sequence encoding OR was inserted into the pGVP1 vector (see FIG. 11) according to a conventional method to obtain the pGVP1-OR vector.
The pGVP1-OR vector was transformed into competent cells of EHA105 (Agrobacterium tumefaciens), the monoclonal was picked up for colony PCR detection, and positive strains were obtained; then the positive strains were inoculated into 1 mL YEP medium containing 50 μg·mL^−1 kanamycin and 50 μg·mL^−1 rifampicin for propagation, and stored at −80° C. or used in subsequent experiments. […]
Rice plants transformed with OR mutant gene were detected using the PCR method, forward and reverse detection primers were designed according to pGVP1-OR vector sequence and rice reference gene, the PCR amplification products were assayed by 1.5% agarose gel electrophoresis, and those with bands at 452 bp and 629 bp were transgenic plants.
The transplanted transgenic rice seedlings were evenly arranged in the same experimental area (to avoid overlapping leaves). The area of occupied regions of the experimental group and the control group was calculated. […]

[3] = target: rice GS (glutamine synthetase); test: Enzymatic activity of purified rice GS: kinetic parameters and glufosinate IC50; format: biochemical, rice (Oryza sativa); conditions: inhibition of rice GS by glufosinate
From the text: (§1) OsC, OsF, OsG, OsH, OsP, and OsY provided in Example 1, OR provided in Example 3, and rice GS mutant OsGR and wheat GS mutant TaGR provided in Example 2 were detected for their enzymatic kinetic parameter, and enzymatic kinetic parameter in the presence of glufosinate, using wild-type rice GS OsGS_WT and wild-type wheat GS TaGS_WT as controls according to the following method.
(§2) The nucleic acid sequences encoding the above mutants were each cloned into a prokaryotic expression vector pET32a, and the clone was verified by sequencing.
(§3) The mutant enzyme protein was purified with 6His by a standard method, and its concentration was determined with a protein concentration assay kit with Bradford method. The protein was stored in a protein storage solution.
(§4) ELIASA (Detielab, HBS-1096A), glufosinate, substrate sodium L-glutamate (CAS: 6106-04-3).
(§5) (1) The composition of a reaction solution for determination of enzymatic activity of glutamine synthetase were as follows: 100 mM Tris-HCl (pH 7.5), 10 mM ATP, 20 mM sodium L-glutamate, 30 mM hydroxylamine, 20 mM MgCl2. 100 μl of the reaction solution after mixed thoroughly was preheated at 35° C. for 5 min, and 10 μl of mutant protein solution (protein concentration of 200 μg/ml) was added to start the reaction. After reaction at 35° C. for 30 min, 110 μl of color developing solution (55 g/L FeCl3·6H2O, 20 g/L trichloroacetic acid, 2.1% concentrated hydrochloric acid) was added to terminate the reaction. The absorbance at 540 nm was measured.

[4] = target: wheat GS (glutamine synthetase); test: Enzymatic activity of purified wheat GS: kinetic parameters and glufosinate IC50; format: biochemical, wheat (Triticum aestivum); conditions: inhibition of wheat GS by glufosinate; read-out: glufosinate resistance parameter IC50
From the text: as §1, §2, §3, §4
as §5, with “After reaction at 35° C. for 30 min, 110 μl of color developing solution (55 g/L FeCl3·6H2O, 20 g/L trichloroacetic acid, 2.1% concentrated hydrochloric acid) was added to terminate the reaction.” left out

Row | Molecule | growth of transformed GS-deficient E. coli (normal GS enzymatic activity) [1] | growth of transformed E. coli (glufosinate resistance) ([1]; medium containing 10 mM glufosinate) | growth of transformed E. coli (glufosinate resistance) ([1]; medium containing 20 mM glufosinate) | growth of transformed E. coli (glufosinate resistance) ([1]; medium containing 50 mM glufosinate) | performance of transgenic rice seedlings after spraying glufosinate [2] | glufosinate resistance parameter IC50 [3] | growth of transformed E. coli (glufosinate resistance) ([1]; media containing 10 mM, 20 mM and 300 mM glufosinate) | growth of transformed E. coli (glufosinate resistance) ([1]; medium containing 300 mM glufosinate) | IC50 [4] [µM] | growth of transformed E. coli (glufosinate resistance) ([1]; media containing 2 mM, 5 mM, 10 mM, and 20 mM glufosinate)
1 | OR: rice GS mutant, H296R versus SEQ ID NO. 1 (SEQ ID NO. 32) (protein, OR) MASLTDLVNLNLSDTTEKIIAEYIWIGGSGMDLRSKARTLSGPVTDPSKLPKWNYDGSSTGQAPGEDSEVILYPQAIFKDPFRKGNNILVMCDCYTPAGEPIPTNKRHNAAKIFSSPEVASEEPWYGIEQEYTLLQKDINWPLGWPVGGFPGPQGPYYCGIGADKSFGRDIVDSHYKACLYAGINISGINGEVMPGQWEFQVGPSVGISAGDQVWVARYILERITEIAGVVVSFDPKPIPGDWNGAGAHTNYSTKSMRNDGGYEIIKSAIEKLKLRHKEHISAYGEGNERRLTGRRETADINTFSWGVANRGASVRVGRETEQNGKGYFEDRRPASNMDPYIVTSMIAETTIIWKP | could normally grow | significantly superior to that of the wild type | significantly grew | still significantly grew | not significantly affected by glufosinate and continued to grow | much higher than those of the wild-type controls | – | – | – | –
2 | OsGR: rice GS mutant, S59G and H296R in SEQ ID NO. 1 (SEQ ID NO. 22) (protein, OsGR) MASLTDLVNLNLSDTTEKIIAEYIWIGGSGMDLRSKARTLSGPVTDPSKLPKWNYDGSGTGQAPGEDSEVILYPQAIFKDPFRKGNNILVMCDCYTPAGEPIPTNKRHNAAKIFSSPEVASEEPWYGIEQEYTLLQKDINWPLGWPVGGFPGPQGPYYCGIGADKSFGRDIVDSHYKACLYAGINISGINGEVMPGQWEFQVGPSVGISAGDQVWVARYILERITEIAGVVVSFDPKPIPGDWNGAGAHTNYSTKSMRNDGGYEIIKSAIEKLKLRHKEHISAYGEGNERRLTGRRETADINTFSWGVANRGASVRVGRETEQNGKGYFEDRRPASNMDPYIVTSMIAETTIIWKP | could normally grow | – | – | – | – | much higher than those of the wild-type controls | grew significantly | grew significantly | – | –
3 | TaGS_WT: wild-type wheat glutamine synthetase, SEQ ID NO. 2, control (protein, listed as Triticum aestivum) MALLTDLLNLDLTDSTEKIIAEYIWIGGSGMDLRSKARTLPGPVTDPSKLPKWNYDGSSTGQAPGEDSEVILYPQAIFKDPFRKGNNILVMCDCYTPAGVPIPTNKRYNAAKIFSNPDVAKEEPWYGIEQEYTLLQKDINWPLGWPVGGFPGPQGPYYCSIGADKSFGRDIVDSHYKACLFAGVNISGINGEVMPGQWEFQVGPTVGISAGDQVWVARYLLERITEIAGVVVTFDPKPIPGDWNGAGAHTNYSTESMRKDGGFKVIVDAVEKLKLKHKEHIAAYGEGNERRLTGKHETADINTFSWGVANRGASVRVGRETEQNGKGYFEDRRPASNMDPYVVTSMIAETTILWKP | could normally grow | – | – | – | – | – | – | – | 600 | could hardly grow
